B1: Flag and GFP-fused PKN3 WT (mouse) [mouse] / p130Cas, endogenous in MDA-MB-231 cells [human (endogenous in MDA-MB-231)] (parent complex)
chain 1: MEHRKPGTGQRAPKDEKEMVRRAIQKELKIKEGMENMRRVATDRRHLGHVQQLLRASNRRLEQLHGELRELHAQVLLPASAEPVTSEPQPRAEQSRARLSEALHRQLQVELKVKQGAENMIHTCASGTPKERKLLAAAQQMLKDSQLKVALLRMKISSLESSGSPEPGPDLLAEELQHRLRVEAAVAAGAKNVVKLLGGQRMQDRKALAEAQAQLQESSQKLDLLRLALELLLERLPPTHSLRSRVTQELWMAMLGNPQPLGTLVKPIALTGTLQVRLLGCKDLLVAVPGRSPMAVLAGSPSESWLRTRSRQQRGGGELASEVLAVLKVDNRVVGQTGWGLVAEKSWDQSFIISLDRARELEIGVHWRDWRQLCGVAFLKLEDFLDNACHQLSLSLVPQGRLFAQVTFCEPVIERRPRLQRQRCIFSKRRGRDFMRASQMNLSMAAWGRLVMSLLPPCSSPNTASPPKGRPSTAVCGTPSAASPSNFLPMKTLSKEDTKPPPKPPRLYLQEPAPGTPCTKRPHMDPRPAVVPALAALSTRKPPRLQDFRCLAVLGRGHFGKVLLVQYKGTGKYYAIKALKKQEVLGRDEIDSLYCEKRILETVGRTGHPFLLSLLACLQTSSHACFVTEFLPGGDLMAQIHEDVFPEPQACFYLACVVLGLQFLHEKRIIYRDLKLDNLLLDAQGFLKIADFGLCKEGIGFGDRTSTFCGTPEFLAPEVLTQEAYTRAVDWWGLGVLLYEMLVGECPFPGDTEEEVFECIVSADVPCPHFLSVQGLELIQKLLQKSPEKRLGAGERDAEEIKVQPFFRTTNWQALLARTVQPPFVPTLCGPADLRYFEGEFTSLPPTLTPPVSQSSLTARQQAAFRDFDFVSEQFLES
chain 2: MNHLNVLAKALYDNVAESPDELSFRKGDIMTVLEQDTQGLDGWWLCSLHGRQGIVPGNRLKILVGMYDKKPAGPGPGPPATPAQPQPGLHAPAPPASQYTPMLPNTYQPQPDSVYLVPTPSKAQQGLYQVPGPSPQFQSPPAKQTSTFSKQTPHHPFPSPATDLYQVPPGPGGPAQDIYQVPPSAGMGHDIYQVPPSMDTRSWEGTKPPAKVVVPTRVGQGYVYEAAQPEQDEYDIPRHLLAPGPQDIYDVPPVRGLLPSQYGQEVYDTPPMAVKGPNGRDPLLEVYDVPPSVEKGLPPSNHHAVYDVPPSVSKDVPDGPLLREETYDVPPAFAKAKPFDPARTPLVLAAPPPDSPPAEDVYDVPPPAPDLYDVPPGLRRPGPGTLYDVPRERVLPPEVADGGVVDSGVYAVPPPAEREAPAEGKRLSASSTGSTRSSQSASSLEVAGPGREPLELEVAVEALARLQQGVSATVAHLLDLAGSAGATGSWRSPSEPQEPLVQDLQAAVAAVQSAVHELLEFARSAVGNAAHTSDRALHAKLSRQLQKMEDVHQTLVAHGQALDAGRGGSGATLEDLDRLVACSRAVPEDAKQLASFLHGNASLLFRRTKATAPGPEGGGTLHPNPTDKTSSIQSRPLPSPPKFTSQDSPDGQYENSEGGWMEDYDYVHLQGKEEFEKTQKELLEKGSITRQGKSQLELQQLKQFERLEQEVSRPIDHDLANWTPAQPLAPGRTGGLGPSDRQLLLFYLEQCEANLTTLTNAVDAFFTAVATNQPPKIFVAHSKFVILSAHKLVFIGDTLSRQAKAADVRSQVTHYSNLLCDLLRGIVATTKAAALQYPSPSAAQDMVERVKELGHSTQQFRRVLGQLAAA

Variants of: B1
Assay: co-immunoprecipitation (IP anti-Flag sepharose, IB anti-p130Cas); MDA-MB-231 cells, transient transfection; parent: 1

Variant	ratio to parent
chain 1 P501A, chain 1 K503S, chain 1 P504A	0.2
chain 1 K577E	0.8
